Measured values as given in US20110117113A1, “IMMUNOGLOBULIN SINGLE VARIABLE DOMAIN DIRECTED AGAINST HUMAN CXCR4 AND OTHER CELL ASSOCIATED PROTEINS AND METHODS TO GENERATE THEM” (priority 2009, published 2011).

Key:
[1] = target: T1, wildtype human CXCR4 (pcDNA3.1-CXCR4, expressed in HEK293T) (human, UniProt P61073 1-352); test: competition with [125I]-238D2, HEK293T-CXCR4 membranes
T1 construct: whole, on cells; also called hCXCR4; HEK293T CXCR4

[2] = target: T1, wildtype human CXCR4 (pcDNA3.1-CXCR4, …); test: competition with [125I]-238D4, HEK293T-CXCR4 membranes
[3] = target: T1, wildtype human CXCR4 (pcDNA3.1-CXCR4, …); test: competition with [125I]-CXCL12, HEK293T-CXCR4 membranes
[4] = target: T2, CXCR4 mutation library (Human CXCR4-short) (Homo sapiens, UniProt P61073, K230E/S178R); test: Shotgun mutagenesis epitope mapping, immunofluorescence on CXCR4 mutation library in HEK-293T; type: binding; conditions: residue S178; mutations K230E, S178R; normalized to wild type; 3 experiments (+/−range)
T2 construct: expressed in transfected cells; host or cells: HEK-293T, transient, 384-well
T2 sequence (P61073 whole entry S178R/K230E): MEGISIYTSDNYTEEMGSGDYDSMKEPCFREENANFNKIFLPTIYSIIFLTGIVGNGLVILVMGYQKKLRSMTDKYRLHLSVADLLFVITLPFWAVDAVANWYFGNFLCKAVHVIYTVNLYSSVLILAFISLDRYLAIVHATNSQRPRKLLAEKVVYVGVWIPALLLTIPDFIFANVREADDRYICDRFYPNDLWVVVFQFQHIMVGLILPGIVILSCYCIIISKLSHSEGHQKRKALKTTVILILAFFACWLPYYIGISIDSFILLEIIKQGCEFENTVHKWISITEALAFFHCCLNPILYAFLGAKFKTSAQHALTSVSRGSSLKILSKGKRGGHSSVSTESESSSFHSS
Description: (§1) Method: See e.g. Willis, et al. 2008. Virus-like particles as quantitative probes of membrane protein interactions. Biochemistry 47:6988-6990. In short, the method comprises the following steps:
(§2) Create comprehensive mutation library • Start with a cDNA in eukaryotic expression plasmid • Create library where every amino acid is individually mutated
(§3) Express each clone within living cells in 384-well microplates
(§4) Detect structure and/or function of proteins
(§5) • Parental plasmid: Human CXCR4-short (SEQ ID NO: 6, 352 amino acids) • Epitope tags: N-terminal Flag (to detect surface expression), C-terminal V5 (to detect full-length translation) • Cell types used for immunofluorescence assays: HEK-293T
(§6) The immunofluorescence assay conditions (to detect binding) were optimized for the nanbodies to be tested. In short, 384-well immunofluorescence (IF) assay using HEK-293T cells transiently was transfected with different concentrations of CXCR4 DNA. The plate was first incubated with different concentrations of either Nanobody 238D2 or 238D4, then with 9E10, and finally with Cy3. The commercially-available anti-CXCR4 MAb 12G5 was used as an IF control.
(§7) Mapping Nanobody Binding to CXCR4 Mutation Library: The entire library was screened in triplicate with each Nanobody. The data was background-subtracted and normalized to wild type reactivity and averaged across the repeats. Nanobody binding was plotted as a function of average surface expression, and measured by immunoreactivity of an N-terminal Flag epitope tag. Thresholds of 60% Flag and 30% Nanobody were used to identify critical clones. Using standard IF conditions, we identified 1 critical residue (2 critical clones). Using increased stringency assay conditions (high salt), we identified 5 additional residues (Tables C-3 and C-4).

[5] = target: T3, CXCR4 mutation library (Human CXCR4-short) (Homo sapiens, UniProt P61073, P191T); test: as above; type: binding; conditions: residue P191; mutation P191T; normalized to wild type; 3 experiments (+/−range); 238D2 critical residues under high stringency
T3 construct: expressed in transfected cells; host or cells: HEK-293T, transient, 384-well
T3 sequence (P61073 whole entry P191T): as the sequence (P61073 whole entry S178R/K230E) above, with R178S, P191T, E230K counted along it
Description: as §1, §2, §3, §4, §5, §6, §7

[6] = target: T4, CXCR4 mutation library (Human CXCR4-short) (Homo sapiens, UniProt P61073, E179V/G258E); test: as above; type: binding; conditions: residue E179; mutations E179V, G258E; normalized to wild type; 3 experiments (+/−range)
T4 construct: expressed in transfected cells; host or cells: HEK-293T, transient, 384-well
T4 sequence (P61073 whole entry E179V/G258E): as the sequence (P61073 whole entry S178R/K230E) above, with R178S, E179V, E230K, G258E counted along it
Description: as §1, §2, §3, §4, §5, §6, §7

[7] = target: T5, CXCR4 mutation library (Human CXCR4-short) (Homo sapiens, UniProt P61073, P163L/S178I); test: as above; type: binding; conditions: residue S178; mutations P163L, S178I; normalized to wild type; 3 experiments (+/−range)
T5 construct: expressed in transfected cells; host or cells: HEK-293T, transient, 384-well
T5 sequence (P61073 whole entry P163L/S178I): as the sequence (P61073 whole entry S178R/K230E) above, with P163L, R178I, E230K counted along it
Description: as §1, §2, §3, §4, §5, §6, §7

[8] = tested on: CXCR4 mutation library (Human CXCR4-short); test: as above; type: binding
Description: as §1, §2, §3, §4, §5, §6, §7

[9] = target: T6, CXCR4 mutation library (Human CXCR4-short) (Homo sapiens, UniProt P61073, C218R/E179V/S351T); test: as above; type: binding; conditions: residue E179; mutations C218R, E179V, S351T; normalized to wild type; 3 experiments (+/−range)
T6 construct: expressed in transfected cells; host or cells: HEK-293T, transient, 384-well
T6 sequence (P61073 whole entry E179V/C218R/S351T): as the sequence (P61073 whole entry S178R/K230E) above, with R178S, E179V, C218R, E230K, S351T counted along it
Description: as §1, §2, §3, §4, §5, §6, §7

[10] = target: T7, CXCR4 mutation library (Human CXCR4-short) (Homo sapiens, UniProt P61073, F189L/S319P/V155E); test: as above; type: binding; conditions: residue F189; mutations F189L, S319P, V155E; normalized to wild type; 3 experiments (+/−range)
T7 construct: expressed in transfected cells; host or cells: HEK-293T, transient, 384-well
T7 sequence (P61073 whole entry V155E/F189L/S319P): as the sequence (P61073 whole entry S178R/K230E) above, with V155E, R178S, F189L, E230K, S319P counted along it
Description: as §1, §2, §3, §4, §5, §6, §7

[11] = target: T8, CXCR4 mutation library (Human CXCR4-short) (Homo sapiens, UniProt P61073, D187A/Y157C); test: as above; type: binding; conditions: residue D187; mutations D187A, Y157C; normalized to wild type; 3 experiments (+/−range)
T8 construct: expressed in transfected cells; host or cells: HEK-293T, transient, 384-well
T8 sequence (P61073 whole entry Y157C/D187A): as the sequence (P61073 whole entry S178R/K230E) above, with Y157C, R178S, D187A, E230K counted along it
Description: as §1, §2, §3, §4, §5, §6, §7

[12] = target: T9, CXCR4 mutation library (Human CXCR4-short) (Homo sapiens, UniProt P61073, F189V); test: as above; type: binding; conditions: residue F189; mutation F189V; normalized to wild type; 3 experiments (+/−range)
T9 construct: expressed in transfected cells; host or cells: HEK-293T, transient, 384-well
T9 sequence (P61073 whole entry F189V): as the sequence (P61073 whole entry S178R/K230E) above, with R178S, F189V, E230K counted along it
Description: as §1, §2, §3, §4, §5, §6, §7

[13] = target: T10, CXCR4 mutation library (Human CXCR4-short) (Homo sapiens, UniProt P61073, S178C); test: as above; type: binding; conditions: residue S178; mutation S178C; normalized to wild type; 3 experiments (+/−range)
T10 construct: expressed in transfected cells; host or cells: HEK-293T, transient, 384-well
T10 sequence (P61073 whole entry S178C): as the sequence (P61073 whole entry S178R/K230E) above, with R178C, E230K counted along it
Description: as §1, §2, §3, §4, §5, §6, §7

[14] = target: T11, CXCR4 mutation library (Human CXCR4-short) (Homo sapiens, UniProt P61073, W195R); test: as above; type: binding; conditions: residue W195; mutation W195R; normalized to wild type; 3 experiments (+/−range); 238D2 critical residues under high stringency
T11 construct: expressed in transfected cells; host or cells: HEK-293T, transient, 384-well
T11 sequence (P61073 whole entry W195R): as the sequence (P61073 whole entry S178R/K230E) above, with R178S, W195R, E230K counted along it
Description: as §1, §2, §3, §4, §5, §6, §7

[15] = target: T12, CXCR4 mutation library (Human CXCR4-short) (Homo sapiens, UniProt P61073, F189S/K308R); test: as above; type: binding; conditions: residue F189; mutations F189S, K308R; normalized to wild type; 3 experiments (+/−range)
T12 construct: expressed in transfected cells; host or cells: HEK-293T, transient, 384-well
T12 sequence (P61073 whole entry F189S/K308R): as the sequence (P61073 whole entry S178R/K230E) above, with R178S, F189S, E230K, K308R counted along it
Description: as §1, §2, §3, §4, §5, §6, §7

T1 sequence (P61073 whole entry): as the sequence (P61073 whole entry S178R/K230E) above, with R178S, E230K counted along it

Molecule | pKi [1] | pKi [2] | pKi [3] | % immunofluoresence, clone 1057 [4] | % immunofluoresence, clone 2184 [5] | % immunofluoresence, clone 2834 [6] | % immunofluoresence, clone 709 [7] | average nanobody reactivity, residue N192 ([8]; all clones containing a mutation at N192, * high stringency conditions) | average nanobody reactivity, residue P191 ([8]; all clones containing a mutation at P191, * high stringency conditions) | average nanobody reactivity, residue V196 ([8]; all clones containing a mutation at V196, * high stringency conditions) | average nanobody reactivity, residue W195 ([8]; all clones containing a mutation at W195, * high stringency conditions) | average nanobody reactivity, residue E277 ([8]; average of all clones containing a mutation at E277, * high stringency conditions) | average nanobody reactivity, residue F189 ([8]; average of all clones containing a mutation at F189) | % immunofluoresence, clone 414 [9] | % immunofluoresence, clone 465 [10] | % immunofluoresence, clone 3728 [11] | % immunofluoresence, clone 1129 [12] | % immunofluoresence, clone 2396 [13] | % immunofluoresence, clone 3630 [14] | % immunofluoresence, clone 913 [15]
Nanobody 238D4 (VHH) VHH: EVQLMESGGGLVQAGGSLRLSCAASGRTFNNYAMGWFRRAPGKEREFVAAITRSGVRSGVSAIYGDSVKDRFTISRDNAKNTLYLQMNSLKPEDTAVYTCAASAIGSGALRRFEYDYSGQGTQVTVSS | 8.8 pKi | 8.55 pKi | 8.22 pKi |  |  |  |  |  |  |  |  |  |  |  |  |  |  |  |  | 
238D2: monovalent anti CXCR4 Nanobody, SEQ ID NO: 2 (protein, Nanobody) VHH: EVQLVESGGGLVQTGGSLRLSCAASGFTFSSYAMSWVRQAPGKGLEWVSGIKSSGDSTRYAGSVKGRFTISRDNAKNMLYLQMYSLKPEDTAVYYCAKSRVSRTGLYTYDNRGQGTQVTVSS |  |  |  | 54.6 (5.8) % | 15.8 (5.4) % | 84.6 (7.8) % | 64.1 (19.6) % | 8.3* | 15.8* | 20.6* | 10.0* | 27.5* | −0.9 | 71.1 (6.7) % | 31.8 (16.2) % | 77.1 (18.2) % | −1.9 (24.2) % | 44.9 (13.4) % | 10.0 (10.4) % | −32.6 (18.7) %
